We go through nine variants from FireProtDB (doi:10.1002/pro.5560070509).

What is called Tm is the temperature at which the thermal transition is half complete.

First the molecules themselves.
B1: NADP-dependent isopropanol dehydrogenase, P25984 (parent)
chain: MKGFAMLGINKLGWIEKERPVAGSYDAIVRPLAVSPCTSDIHTVFEGALGDRKNMILGHEAVGEVVEVGSEVKDFKPGDRVIVPCTTPDWRSLEVQAGFQQHSNGMLAGWKFSNFKDGVFGEYFHVNDADMNLAILPKDMPLENAVMITDMMTTGFHGAELADIQMGSSVVVIGIGAVGLMGIAGAKLRGAGRIIGVGSRPICVEAAKFYGATDILNYKNGHIVDQVMKLTNGKGVDRVIMAGGGSETLSQAVSMVKPGGIISNINYHGSGDALLIPRVEWGCGMAHKTIKGGLCPGGRLRAEMLRDMVVYNRVDLSKLVTHVYHGFDHIEEALLLMKDKPKDLIKAVVIL

The data set covers variants of B1. To be noted: Clostridium beijerinckii; pH 8.25; Thermal; DSC; Sodium phosphate 25 mM; NaCl 1 M; reversible: yes; structure 1KEV; whole UniProt chain shown.

MKGFAMLGINKLGWIEKERPVPGSYDAIVRPLAVSPCTSDIHTVFEGALGDRKNMILGHEAVGEVVEVGSEVKDFKPGDRVIVPCTTPDWRSLEVQAGFQQHSNGMLAGWKFSNFKDGVFGEYFHVNDADMNLAILPKDMPLENAVMITDMMTTGFHGAELADIQMGSSVVVIGIGAVGLMGIAGAKLRGAGRIIGVGSRPICVEAAKFYGATDILNYKNGHIVDQVMKLTNGKGVDRVIMAGGGSETLSQAVSMVKPGGIISNINYHGSGDALLIPRVEWGCGMAHKTIKGGLCPGGRLRAEMLRDMVVYNRVDLSKLVTHVYHGFDHIEEALLLMKDKPKDLIKAVVIL [A22P]: the Tm is 66.7 °C and the “change of melting temperature, mutant - wild type (higher = more stable)” value (from here on “change of melting temperature, mutant”) worked out at 0.7 °C.
Taken in the same sequence, the figures for MKGFAMLGINKLGWIEKERPVAGSYDAIVRPLAVSPCTSDIHTVFEGALGDRKNMILGHEAVGEVVEVGSEVKDFKPGDRVIVPCTTPDWRSLEVQAGFQQHSNGMLAGWKFSNFKDGVFGEYFHVNDADMNLAILPKDMPLENAVMIPDMMTTGFHGAELADIQMGSSVVVIGIGAVGLMGIAGAKLRGAGRIIGVGSRPICVEAAKFYGATDILNYKNGHIVDQVMKLTNGKGVDRVIMAGGGSETLSQAVSMVKPGGIISNINYHGSGDALLIPRVEWGCGMAHKTIKGGLCPGGRLRAEMLRDMVVYNRVDLSKLVTHVYHGFDHIEEALLLMKDKPKDLIKAVVIL [T149P] were 65 °C and -1 °C.
Taken in the same sequence, the figures for MKGFAMLGINKLGWIEKERPVAGPYDAIVRPLAVSPCTSDIHTVFEGALGDRKNMILGHEAVGEVVEVGSEVKDFKPGDRVIVPCTTPDWRSLEVQAGFQQHSNGMLAGWKFSNFKDGVFGEYFHVNDADMNLAILPKDMPLENAVMITDMMTTGFHGAELADIQMGSSVVVIGIGAVGLMGIAGAKLRGAGRIIGVGSRPICVEAAKFYGATDILNYKNGHIVDQVMKLTNGKGVDRVIMAGGGSETLSQAVSMVKPGGIISNINYHGSGDALLIPRVEWGCGMAHKTIKGGLCPGGRLRAEMLRDMVVYNRVDLSKLVTHVYHGFDHIEEALLLMKDKPKDLIKAVVIL [S24P] were 69.9 °C and 3.9 °C.
Consider MKGFAMLGINKLGWIEKERPVAGSYDAIVRPLAVSPCTSDIHTVFEGALGDRKNMILGHEAVGEVVEVGSEVKDFKPGDRVIVPCTTPDWRSLEVQAGFQQHSNGMLAGWKFSNFKDGVFGEYFHVNDADMNLAILPKDMPLENAVMITDMMTTGFHGAELADIQMGSSVVVIGIGAVGLMGIAGAKLRGAGRIIGVGSRPICVEAAKFYGATDILNYKNGHIVDQVMKLTNGKGVDRVIMAGGGSETLSQAVSMVKPGGIISNINYHGSGDALLIPRVEWGCGMAHKTIKGGLCPGGRLRAEMLRDMVVYNRVDPSKLVTHVYHGFDHIEEALLLMKDKPKDLIKAVVIL [L316P], for which the midpoint of thermal melting (Tm) came to 76.8 °C and the “change of melting temperature, mutant” value stood at 10.8 °C.
Taken in the same sequence, the figures for MKGFAMLGINKLGWIEKERPVAGSYDAIVRPLAVSPCTSDIHTVFEGALGDRKNMILGHEAVGEVVEVGSEVKDFKPGDRVIVPCTTPDWRSLEVQAGFQQHSNGMLAGWKFSNFKDGVFGEYFHVNDADMNLAILPKDMPLENAVMITDMMTTGFHGAELADIQMGSSVVVIGIGAVGLMGIAGAKLRGAGRIIGVGSRPICVEAAKFYGATDILNYKNGPIVDQVMKLTNGKGVDRVIMAGGGSETLSQAVSMVKPGGIISNINYHGSGDALLIPRVEWGCGMAHKTIKGGLCPGGRLRAEMLRDMVVYNRVDLSKLVTHVYHGFDHIEEALLLMKDKPKDLIKAVVIL [H222P] were 59.5 °C and -6.5 °C.
Taken in the same sequence, the figures for MKGFAMLGINKLGWIEKERPVAGSYDAIVRPLAVSPCTSDIHTVFEGALGDRKNMILGHEAVGEVVEVGSEVKDFKPGDRVIVPCTTPDWRSLEVQAGFQQHSNGMLAGWKFSNFKDGVFGEYFHVNDADMNLAILPKDMPLENAVMITDMMTTGFHGAELADIQMGSSVVVIGIGAVGLMGIAGAKLRGAGRIIGVGSRPICVEAAKFYGATDILNYKNGHIVDQVMKLTNGKGVDRVIMAGGGSETLSQAVSMVKPGGIISNINYHGSGDALLIPRVEWGCGMAHKTIKGGLCPGGRLRAEMLRDMVVYNRVDLSKLVTHVYHGFDHIEEALLLMKDKPKDLIKPVVIL [A347P] were 68.6 °C and 2.6 °C.
As for MKGFAMLGINKLGWIEKERPVAGSYDAIVRPLAVSPCTSDIHTVFEGALGDRKNMILGHEAVGEVVEVGSEVKDFKPGDRVIVPCTTPDWRSLEVQAGFQQHSNGMLAGWKFSNFKDGVFGEYFHVNDADMNLAILPKDMPLENAVMITDMMTTGFHGAELADIQMGSSVVVIGIGPVGLMGIAGAKLRGAGRIIGVGSRPICVEAAKFYGATDILNYKNGHIVDQVMKLTNGKGVDRVIMAGGGSETLSQAVSMVKPGGIISNINYHGSGDALLIPRVEWGCGMAHKTIKGGLCPGGRLRAEMLRDMVVYNRVDLSKLVTHVYHGFDHIEEALLLMKDKPKDLIKAVVIL [A177P], the Tm came out at 66.5 °C and the “change of melting temperature, mutant” value worked out at 0.5 °C.
Taken in the same sequence, the figures for MKGFAMLGINKLGWIEKERPVAGPYDAIVRPLAVSPCTSDIHTVFEGALGDRKNMILGHEAVGEVVEVGSEVKDFKPGDRVIVPCTTPDWRSLEVQAGFQQHSNGMLAGWKFSNFKDGVFGEYFHVNDADMNLAILPKDMPLENAVMITDMMTTGFHGAELADIQMGSSVVVIGIGAVGLMGIAGAKLRGAGRIIGVGSRPICVEAAKFYGATDILNYKNGHIVDQVMKLTNGKGVDRVIMAGGGSETLSQAVSMVKPGGIISNINYHGSGDALLIPRVEWGCGMAHKTIKGGLCPGGRLRAEMLRDMVVYNRVDPSKLVTHVYHGFDHIEEALLLMKDKPKDLIKAVVIL [S24P L316P] were 77.1 °C and 11.1 °C.
Taken in the same sequence, the figures for MKGFAMLGINKLGWIEKERPVAGSYDAIVRPLAVSPCTSDIHTVFEGALGDRKNMILGHEAVGEVVEVGSEVKDFKPGDRVIVPCTTPDWRSLEVQAGFQQHSNGMLAGWKFSNFKDGVFGEYFHVNDADMNLAILPKDMPLENAVMITDMMTTGFHGAELADIQMGSSVVVIGIGAVGLMGIAGAKLRGAGRIIGVGSRPICVEAAKFYGATDILNYKNGHIVDQVMKLTNGKGVDRVIMAGGGSETLSQAVSMVKPGGIISNINYHGSGDALPIPRVEWGCGMAHKTIKGGLCPGGRLRAEMLRDMVVYNRVDLSKLVTHVYHGFDHIEEALLLMKDKPKDLIKAVVIL [L275P] were 63.7 °C and -2.3 °C.
